Reference: US20200397913A1, “AXL-SPECIFIC ANTIBODY-DRUG CONJUGATES FOR CANCER TREATMENT” (GENMAB A/S, priority 2015, published 2020)
Marks after values point to notes of the source that are not given here.

Experiments:
[1] = target: Gas6 binding to AXL on A431 cells (Homo sapiens, UniProt P30530); test: Gas6 binding to A431 cells pre-incubated with AXL antibodies; design: endogenous in cells; host or cells: A431; details: pre-incubation with 10 μg/mL antibody; control antibody b12
Protocol: Alternatively, A431 cells were pre-incubated with 10 μg/mL AXL antibodies (15 minutes, 4° C.) to assess if the AXL ligand Gas6 could still bind in presence of AXL antibodies. […] After washing three times in PBS/0.1% BSA/0.02% azide, cells were incubated with mouse anti-Gas6 IgG2a (R&D Systems; cat no. MAB885) at 4° C. for 30 min. After washing three times in PBS/0.1% BSA/0.02% azide, cells were incubated with FITC-labelled goat anti-mouse IgG (Dako, Heverlee, Belgium; cat no. F049702) at 4° C. for 30 min in the dark. Next, cells were washed twice in PBS/0.1% BSA/0.02% azide, resuspended in 120 μL PBS/0.1% BSA/0.02% azide and analyzed on a FACS Cantoll (BD Biosciences).
(§1) Binding curves were analyzed using non-linear regression (sigmoidal dose-response with variable slope) using GraphPad Prism V5.04 software (GraphPad Software, San Diego, Calif., USA).
Therefore, binding of Gas6 to A431 cells that had been pre-incubated with 10 μg/mL AXL antibodies was tested as described in Example 2.

[2] = test system: MDA-MB-231 and Calu-1 cells; test: Internalization of cell surface bound HuMab-AXL by flow cytometry; type: cell-based, human; details: 1 hour 4° C, then overnight 37° C versus 4° C
Protocol: Internalization of cell surface bound HuMab-AXL antibodies to MDA-MB-231 and Calu-1 cells (human lung carcinoma cell line; ATCC, catalognumber HTB-54) was evaluated by flow cytometry. 50,000 cells were seeded in 96-well tissue culture plates and allowed to attach for 6 hrs at 37° C. Plates were incubated at 4° C. for 30 minutes before incubation with serial dilutions of AXL-antibodies (final concentration range 0.0032-10 μg/mL) at 4° C. for 1 hour. Subsequently, the medium was replaced by tissue culture medium without antibody and cells were incubated overnight (16-18 hours) at 37° C. or 4° C. […] Finally, cells were washed twice in PBS/0.1% BSA/0.02% azide, resuspended in 120 μL PBS/0.1% BSA/0.02% azide and analyzed on a FACS Cantoll (BD Biosciences).
as §1

[3] = target: T1, human AXL with a mouse ECD (Mus musculus, UniProt Q00993, A791T/A867T/C878S/D603E/D853E/E609A/F637Y/G606S/G869S/H824Y/L452V/L825P/L872Q/P881A/R785Q/R828P/S823G/S856P/S873P/T871A/V766A); test: Flow cytometry binding to HEK293T cells transfected with human AXL with mouse ECD; details: 0.0024-10 μg/mL
T1 construct: aa 1-441); expressed in transfected cells; host or cells: HEK293T
T1 sequence (Q00993 19-888 with the stated changes): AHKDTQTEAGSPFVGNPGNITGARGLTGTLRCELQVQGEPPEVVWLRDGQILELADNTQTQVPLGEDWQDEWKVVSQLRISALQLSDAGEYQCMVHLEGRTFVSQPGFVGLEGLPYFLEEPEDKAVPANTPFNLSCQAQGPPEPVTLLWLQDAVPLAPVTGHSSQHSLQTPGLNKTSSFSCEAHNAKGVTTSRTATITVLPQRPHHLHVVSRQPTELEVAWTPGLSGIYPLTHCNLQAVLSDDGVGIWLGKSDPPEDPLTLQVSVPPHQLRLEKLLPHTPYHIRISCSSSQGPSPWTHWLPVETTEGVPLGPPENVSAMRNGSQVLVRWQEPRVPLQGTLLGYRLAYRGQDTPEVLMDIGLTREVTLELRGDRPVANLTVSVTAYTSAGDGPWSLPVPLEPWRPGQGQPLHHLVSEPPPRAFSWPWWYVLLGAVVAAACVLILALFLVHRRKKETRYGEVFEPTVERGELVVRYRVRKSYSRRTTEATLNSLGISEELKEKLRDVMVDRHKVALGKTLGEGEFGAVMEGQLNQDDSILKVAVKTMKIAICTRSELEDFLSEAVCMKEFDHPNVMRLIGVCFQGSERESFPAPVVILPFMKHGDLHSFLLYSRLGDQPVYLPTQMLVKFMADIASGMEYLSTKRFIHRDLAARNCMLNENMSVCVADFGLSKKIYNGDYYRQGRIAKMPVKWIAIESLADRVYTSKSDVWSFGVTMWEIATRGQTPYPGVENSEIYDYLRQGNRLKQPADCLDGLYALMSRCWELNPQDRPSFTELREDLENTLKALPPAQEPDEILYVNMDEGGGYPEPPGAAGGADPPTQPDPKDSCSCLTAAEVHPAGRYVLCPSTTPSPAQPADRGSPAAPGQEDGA

[4] = target: T2, human AXL with a cynomolgus monkey extracellular domain (ECD) (Homo sapiens, UniProt P30530, P441T/S191N/S285L/T105A/T112A/T125N/T443A); test: Flow cytometry binding to HEK293T cells transfected with human AXL with cynomolgus ECD; details: at least 3 experiments
T2 construct: aa 1-447); expressed in transfected cells; host or cells: HEK293T

human AXL = target: T3, human AXL (Homo sapiens, UniProt P30530); test: Flow cytometry binding to HEK293T cells transfected with full length human AXL; details: at least 3 experiments
T3 construct: expression constructs for full length human AXL; expressed in transfected cells; host or cells: HEK293T

[5] = target: T4, AXLECDHis (extracellular domain of human AXL) (Homo sapiens, UniProt P30530); test: Binding affinity by Bio-Layer Interferometry (Octet); details: for Kdis / Kon: soluble AXLECDHis, 30° C, 1:1 model
T4 construct: the extracellular domain (ECD) of human AXL (aa 1-447) with a C-terminal His tag (AXLECDHis); His tag (C); made in house; host or cells: HEK-293F

AXL on A431 cells = target: T5, AXL on A431 cells (Homo sapiens, UniProt P30530); test: Antibody binding to A431 cells with or without Gas6 pre-incubation; details: for Antibody binding to A431 cells: EC50 w/o Gas6 mean (s.d.): no Gas6 pre-incubation; for Antibody binding to A431 cells: EC50 in presence of Gas6 mean (s.d.): pre-incubation with 10 μg/mL Gas6
T5 construct: AXL-positive A431 cells were incubated; endogenous in cells; host or cells: A431

[6] = target: T6, human AXL transiently expressed by HEK-293F cells (Homo sapiens, UniProt P30530); test: Homogeneous antigen specific screening assay (FMAT); details: binding to human AXL on HEK-293F cells
T6 construct: HEK-293F cells transiently expressing full length human AXL; expressed in transfected cells; host or cells: HEK-293F

Row | Molecule | Gas6 binding: Maximal binding in presence of AXL antibodies (% of binding in presence of control antibody) [1] [%] | internalization of membrane-bound antibody [2] | binding to AXL with a mouse ECD [3] | Binding EC50 cynomolgus AXL Average (s.d.) [4] | Binding EC50 human AXL Average (s.d.) (human AXL) | Kdis [5] [s⁻¹] | Kon [5] [M⁻¹ s⁻¹] | Antibody binding to A431 cells: EC50 w/o Gas6 mean (s.d.) (AXL on A431 cells) | Antibody binding to A431 cells: EC50 in presence of Gas6 mean (s.d.) (AXL on A431 cells) | dissociation rate, fold higher than wild-type IgG1-AXL-183 [5] | Maximal binding [6] [Arbitrary units]
1 | IgG1-AXL-733: human IgG1,κ anti-AXL antibody, VH SEQ ID NO:34, VL SEQ ID NO:35; FN1 domain binding (antibody, V domains shown, homo sapiens) VH: QVQLVESGGGVVQPGRSLRLSCAASGFSFSTYAMHWVRQAPGKGLEWVAVISYDGDNKYSADSVKGRFTISRDNSKNTLYLQMNSLRAEDTAVYYCARGRKLGIDAFDIWGQGTMVTVSS VL: AIQLTQSPSSLSASVGDRVTITCRASQGISSALAWYQQKPGKAPKLLIYDASSLESGVPSRFSGSGSGTDFTLTISGLQPEDFATYYCQQFNSYPFTFGPGTKVDIK | 96 | internalize | low | 0.254 (0.114) μg/mL | 0.176 (0.094) μg/mL | 0.0097 | 160000 | 0.49 (0.51) μg/mL | 0.62 (0.23) μg/mL |  | 
2 | IgG1-AXL-183-N52Q: point mutant of IgG1-AXL-183, VH SEQ ID NO:17, VL SEQ ID NO:18 (antibody, V domains shown, homo sapiens) VH: QVQLQQWGAGLLKPSETLSLTCAVYGGSFSGYYWSWIRQPPGKGLEWIGEIQQSGSTNYNPSLKSRVTISVDTSKNQFSLKLSSVTAADTSVYYCASGNWDHFFDYWGQGTLVTVSS VL: DIQMTQSPSSVSASVGDRVTITCRASQGISSWLAWYQHKPGKAPKLLIYATSSLQSGVTSRFSGSGSGTDFTLTISSLQPEDFATYYCQQAKSFPWTFGQGTKVEIK |  | internalize | low | 0.324 (0.121) μg/mL | 0.350 (0.206) μg/mL | 0.001 | 42000 |  |  | approximately 2.5 fold | 
3 | IgG1-AXL-511: human IgG1,κ anti-AXL antibody, VH SEQ ID NO:136, VL SEQ ID NO:140; Ig2 domain binding (antibody, V domains shown, homo sapiens) VH: EVQLLESGGGLVQPGGSLRLSCAASGFTFSSYAMNWVRQAPGKGLEWVSGISGSGGHTYHADSVKGRFTISRDNSKNTLYLQMNSLRAEDTAVYYCAKDRYDILTGYYNLLDYWGQGTLVTVSS VL: DIQMTQSPSSLSASVGDRVTITCRASQGISSWLAWYQQKPEEAPKSLIYAASSLQSGVPSRFSGSGSGTDFTLTISSLQPEDFATYYCQQYNSYPLTFGGGAKVEIK | 113 | internalize |  |  |  | 0.0039 | 170000 | 0.12 (0.11) μg/mL | 0.30 (0.31) μg/mL |  | 
4 | IgG1-AXL-183: human IgG1,κ anti-AXL antibody, VH SEQ ID NO:16, VL SEQ ID NO:18; FN1 domain binding (antibody, V domains shown, homo sapiens) VH: QVQLQQWGAGLLKPSETLSLTCAVYGGSFSGYYWSWIRQPPGKGLEWIGEINQSGSTNYNPSLKSRVTISVDTSKNQFSLKLSSVTAADTSVYYCASGNWDHFFDYWGQGTLVTVSS VL: DIQMTQSPSSVSASVGDRVTITCRASQGISSWLAWYQHKPGKAPKLLIYATSSLQSGVTSRFSGSGSGTDFTLTISSLQPEDFATYYCQQAKSFPWTFGQGTKVEIK | 115 |  | low | 0.309 (0.086) μg/mL | 0.526 (0.177) μg/mL | 0.00042 | 41000 | 0.69 (0.72) μg/mL | 1.19 (1.11) μg/mL |  | 
5 | IgG1-AXL-726: human IgG1,κ anti-AXL antibody, VH SEQ ID NO:31, VL SEQ ID NO:33; FN2 domain binding (antibody, V domains shown, homo sapiens) VH: QVQLQQWGAGLLKPSETLSLTCAIDGGSFSGYYWSWIRQPPGKGLEWIGEISHSGRTNYNPSLKSRVTISIDTSKNQFSLKLSSVAAADTAVYYCARFITMIRGAIITHFDYWGQGALVTVSS VL: DIQMTQSPSSLSASVGDRVTITCRASQGISSWLAWYQQKPEKAPKSLIYAASSLQSGVPSRFSGSGSGTDFTLTISSLQPEDFATYYCQQYHSYPYTFGQGTKLEIK | 98 |  | not detectable | 0.349 (0.160) μg/mL | 0.288 (0.206) μg/mL | 0.00013 | 240000 | 0.32 (0.35) μg/mL | 0.55 (0.69) μg/mL |  | 3154
6 | IgG1-AXL-140: human IgG1,κ anti-AXL antibody, VH SEQ ID NO:3, VL SEQ ID NO:4 (antibody, V domains shown, homo sapiens) VH: EVQLLESGGGLVQPGGSLRLSCAASGFTFSSYAMTWVRQAPGKGLEWVSAISISGASTFYADSVKGRFTISRDNSKNTLSLQMNSLRAEDTAVYFCRGYSGYVYDAFDIWGQGTMVTVSS VL: DIQMTQSPSSLSASVGDRVTITCRASQGISNWLAWYQQKPEKAPKSLIYAASSLQSGVPSRFSGSGSGTDFTLTISSLQPEDFATYYCQQYNSYPLTFGGGTKVEIK |  |  |  |  |  |  |  |  |  |  | 2889
7 | IgG1-AXL-187: human IgG1,κ anti-AXL antibody, VH SEQ ID NO:19, VL SEQ ID NO:20 (antibody, V domains shown, homo sapiens) VH: QVPLQQWGAGLLKPSETLSLTCAVYGGSFSGYHWSWIRQPPGKGLEWIGEISHSGRTNYNPSLKSRVTISIDTSKNQFSLKLSSVTAADTAVYYCASFITMIRGTIITHFDYWGQGTLVTVSS VL: DIQMTQSPSSLSASVGDRVTITCRASQGISSWLAWYQQKPEKAPKSLIYAASSLQSGVPSRFSGSGSGTDFTLTISSLQPEDFATYYCQQYHSYPYTFGQGTKLEIK |  |  |  |  |  |  |  |  |  |  | 2563
